# Test results: patent US20230071889A1 (OSE IMMUNOTHERAPEUTICS, published 2023)
# T1: CD132 receptor (Sinobiological 10555-H08B) (UniProt P31785 23-254)
# T1 construct: Bought protein injected over the CD127/IL-7 complex in Biacore; also called common γ chain
# T1 sequence (looked up): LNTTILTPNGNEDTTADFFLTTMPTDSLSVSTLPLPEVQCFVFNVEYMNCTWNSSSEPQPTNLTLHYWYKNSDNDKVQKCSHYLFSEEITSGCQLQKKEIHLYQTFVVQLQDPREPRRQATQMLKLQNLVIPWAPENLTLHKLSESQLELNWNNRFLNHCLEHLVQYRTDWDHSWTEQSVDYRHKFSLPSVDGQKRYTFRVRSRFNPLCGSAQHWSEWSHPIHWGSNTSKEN
# Assays:
# [1] = target: T2, recombinant human PD-1 (Example 2) (human, UniProt Q15116 25-167, limits assumed, biotinylated in the PD-L1 ELISA (site not stated)); assay: competition ELISA: PD-L1 coated, antibody mixed with biotinylated PD-1 at 0.6 ug/mL, streptavidin peroxidase; blocked ligand PD-L1
# T2 construct: Biotinylated form in the ELISA on PD-L1; recombinant human PD-1 (100 nM) in the Biacore assay on PD-L2; also called biotinylated recombinant human PD-1; PD-1 recombinant protein
# T2 sequence (Q15116 25-167 limits assumed): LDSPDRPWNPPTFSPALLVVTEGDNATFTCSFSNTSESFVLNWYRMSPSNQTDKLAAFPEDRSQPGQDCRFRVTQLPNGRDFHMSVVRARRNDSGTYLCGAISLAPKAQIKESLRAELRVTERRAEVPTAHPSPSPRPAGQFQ
# [2] = target: T1, CD132 receptor (Sinobiological …); assay: Biacore, CD132 injected over the CD127/IL-7 complex on the chip
# Method: CD127 (Sinobiological, 10975-H03H-50) was immobilized onto a CM5 biochip at 20 μg/ml and the indicated protein were added at serial concentrations (0.34; 1.03; 3.11; 9.3; 28 nM).
IC50 (read off the curve) [1] [nM],Kd [2] [nM],Binder
~4,,"anti-PD1 antibody, chimeric form (antibody, human IgG4 S228P, kappa, V domains shown, also called anti-PD1 alone) VH: QIQLVQSGPELKKPGETVKISCKASGYTFTHYGMNWVKQAPGKGLKWMGWINTNTGEPTYAEEFKGRFAFSLETSASAAFLQINNLKNEDTATYFCAKEREPGMDSWGQGTSVTVSS VL: DVLLTQTPLSLPVSLGDQASISCRSSQNIVHANGNTYLEWYLQKPGQSPKLLIYKVSNRFSGVPDRFSGSGSGTDFTLKITRVEAEDLGVYYCFQGSHVPNTFGGGTKLEIKR"
,198,"recombinant IL-7 cytokine (rIL7) (Biorad PHP046) (ligand, human, UniProt P13232 26-177, looked up, Bought cytokine) DCDIEGKDGKQYESVLMVSIDQLLDSMKEIGSNCLNNEFNFFKRHICDANKEGMFLFRAARKLRQFLKMNSTGDFDLHLLKVSEGTTILLNCTGQVKGRKPAALGEAQPTKSLEENKSLKEQKKLNDLCFLKRLLQEIKTCWNKILMGTKEH"
